Test results reported in the supplement of paper PMC12636428.

test system: Saccharomyces cerevisiae; assay: transcriptional activation domain activity (GFP:mCherry ratio, weighted mean of sorted bins, harmonized to initial dataset scale) (arbitrary fluorescence ratio units); higher = stronger transcriptional activation; conditions: beta-estradiol 1 µM; induction time 4 h
How it was run: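 Sorting into 8 bins by GFP:mCherry ratio followed a 4-hour hold at 30 °C after cultures were diluted 1:5 into SC with 1 uM beta-estradiol. The yeast diploids carried a GFP reporter and had barcoded protein tiles, fused to an estradiol-inducible synthetic transcription factor, integrated at URA3. Barcodes were then sequenced, and tiles with under 50 reads were removed. Activation activity is the read-weighted mean of bin median fluorescence, averaged across barcodes and linearly mapped onto the initial dataset scale.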

Row | Sequence | transcriptional activation domain activity
1 | MGNMGTCSFFFFFCWSSFFLCYFCVFPCVLSFQVEGLEAIFLPFTFFPFWFSL | 57300
2 | DKDEDAGAVEGEGGVVNANGKKTSGDEAGGERKKKQKQKEREKGGEDGAGKKG | 47700
3 | SADIERRHHKKNHKGGANAGNAAGNNNNAGGNAGNATAAAANRRDVVEDLQSR | 13900
4 | VYSYKKRMWHYFLFDLCYYVNIINLVYIWILPQSAWLFVACYCLSHGSVASAV | 58700
5 | DKSSGEEGSRKKRKRVSDNGEEDKELEKSKSKDRKKKGKRRDPAEDGAERPAT | 41400
6 | TIITNRGTIPNGLGRDIWTLQPDMITSFAYWFYHMEYAYFLNLVLLKASILFF | 57800
7 | FAHIQPGLNVPIRAIMLCYLFNVAFGLLYLGPSVAFGAYISSCTILLNVSYAF | 57100
8 | DQPLNEILGFLLSWLLMFDHFNEITFKLKQEYTTQLKDGDLISLLLPVLFNIL | 41100
9 | PGVRGNTESIFLLICNLPYLEHPDKVARTVYKIIWGEHHRNLLRLTYWLHRCP | 68200
10 | MAFFYLCYIIISLVLYLFFLCSSFCCFMIHEFSLLSSLSQFSQRVYIGWSFFR | 58300
11 | EAKKEGEHGAAPAGEHGAAPAAGGHGAEAKKEGEHGAAPAAGGHGAAPAAGGH | 21300
12 | LDKVADPDYHPAVENSDVEEVMAAWRKTVREEALGVVEAGGGNVPGRGRVEVK | 48000
13 | ADSKTRNKRDGSNSTTSRSRSSRSRGEAVDDDGSSSSKRSSRSSRTDEGGAAR | 41400
14 | KQYCVRPNSGRIEPGRDVEVQVLLQAMREDPPPDAKCRDKFLVQSVAVTADKE | 44900
15 | CPVHTTLHVPHFLIWSSHILFFFLVFFFVFSLFPFPLVCLVAFFLVLSALPPS | 42700
16 | GSEDRRKSSRSRDRRERRSRSRDKSHRDRERERDKDRERRHRDHEPRHSHRDR | 43300
17 | WYAPDAGGSVYDYITLTAGLDALNCAQKVRISPLLIVLLRNFAVRCLLSKGSL | 52300
18 | MLLLLIIRKVLILGKPFFINHLHILLYPDTVLSPFLLLSFPLTLPLSLLLLLL | 106000
19 | QANGVEKAVENLSISSPHPDTHAQSAPEQNGPKKKPNRAKARLARRAAEYEAL | 14100
20 | QESEAVTEKCKNRLDITSEELERVLLQKEGESLKDNAVQQRQGAGGKRAIGKA | 23500
21 | HFILTYLLLFMSVPFEFVMASFEFFHLIHCLKFPNTFYSFFFSFVFFLRHFVF | 56700

Row | Sequence | transcriptional activation domain activity
22 | IGYFVPTTKFHGPARFGYLEYADHIFRLYEILDWRVFVGISLFLHWVFSYSHT | 39100
23 | VHFIYHHSFRMRFYYFFLLSFLQAGRSIGFLIHGFWCFLLLIAFFVYPFLRFV | 64600
24 | LRLSTTISAYGIGIGYTAAVLVQVLSIVILILLESTTFALRLVLFVVGAWWLI | 46900
25 | MVCCAFFVVFFLIEIFIILFLCLPFFSFLFLLWEGRVGGYALWLLSVQVCVRT | 55800
26 | RRRVNLLVCTCGMLISLIVVGGLGTTHRGGPFNKPVGITIVVFSYINIICFNF | 45300
27 | VGLAIYCVSQHLMIPSATELICMYPVVNSTIGLITYYYLIFSFLFGIMIITYC | 64600
28 | DETLAYIARRHNYTGKSLILPPTEITLRFFAHVARVMELSMADLLIALVYVRR | 50100
29 | LPTKYRVLDGLFQALAVRAGGFYVVTIANLRQGLLYVSAYPVTLTMRNTNVYE | 48900
30 | FFFFHFFFFWSSLRHIFQVLILGALGFLFFHFSFFIFHFSFFIFHFHFLFFFS | 50400
31 | LAELVPKLDDSTVQYAYVRQEYANDSESTRVKFALIIWIGQSTKVMRKARVSI | 52800
32 | HMALVHLFAFLDRFALFGKLYRAAQVVNRVTSPYVVLAWTSLYSFSLRVVART | 52400
33 | IRLLISKHWLPVLFSFRGFMELTTTVPFLLSTYIPNGRYLYVPYFIRSWVLLL | 72800
34 | YFILFPFHHFLSPSLHSAPAFWCTLLLFTYVLVFFFGTLYHMVMFCFVCLFIC | 94500
35 | EAEARGSGGGGERQRDCERQREPRATRAGGDAGARDGAGARGLARGAAGVAAM | 51700
36 | LLPLFFASIGFAIVSMILIFSSNVVCLLICPHQALSRIVASYLLRHDPKYLCA | 71600
37 | AAEDGKKGDKAEVGKRGDKAEVKKVKKVDGEEAGGEKVVVEKKAGAEQKAVKA | 17500
38 | PKPKAKTPSKAKKKAEPIPKAKAAPKPKEKTTPNTPARRGRPRKEKAAAETPM | 37500
39 | RVLETPAIFPSFLNTALFPMPFIVGLILFFFFALFPFPLPFLSPSFFPSILQY | 43200
40 | MIEMMAFRIALGFVGGLGLDGVWCGFFFPFKFVVFSFLHTLSISLGLDFFFLL | 91700
41 | GQATLRLLKESGRQSHAPIFIVGAFDGNRRQIGEGMGSSIKMAEFRAAEDALR | 26300
42 | LHRYPIIRRGVALQTGKGKRKRMYQLIVVGNGDGLVGYGEGKNEDMGMAASKS | 28500

Row | Sequence | transcriptional activation domain activity
43 | EKDKKEETKDEPKKNEVKPETKDDVDEKKDENGRPKLVVKRLRKETTAAAAVA | 37600
44 | NCMLRTIHLIWESNLSCTCIVNMLVLPCLHTLSITQCLYERKDKDPNPVILEA | 59000
45 | LSADYLCQYSGSLIGKHFKSLAQVMPFIIYDLVPKTVLNAWNVIGNLVVMLWH | 46100
46 | GKKGSSGAKKGGKKGSSTGAKEEVAKKPSIEKSGEKKSEGGEKKENDEKKNDK | 37900
47 | KEVASADTKPADAPAGEAKAPKKEKKEKEKKPAEAAEGGKKKEKAAGGGGKAA | 36100
48 | NLLARRPFFVFWFMGQIHRSLTLFHCDPTLLVALDVCKSLIPAINYLTLLWPC | 70900
49 | FWGLRSLPSSPFICLFLFYCGLVLMHSGLYLGLFLFLLFLSLSVFLFLSHFSV | 30100
50 | YNLVLSHNLVLSHLWHHYYVQHLHGLLRSFSSINLPFLLHLPLSLLLLHWVTW | 55700
51 | EEREEEKEEEKEEKEQEKKKEEETRRRIRSRKRRGARRRETMRKTSQRGNRKK | 25200
52 | MIYLASFLLLTVDSSIWSVPITIFIPYTIYLFPPHTYICVLFARILIFHLLSF | 61200
53 | RVLVILRMWAFCYRGNGRTKYAHEMLHLLHNLICVWTKELRHIVLQNWLANPQ | 61100
54 | HLLKWCNFGLLPHWLFHILILVSKSSLNNLIIAYVYCPLFFGCFLPSTYISCN | 58200
55 | LIHLMNIAQVVILFVHRFIFGVIPLFEIKTCSFWPLLVSLWHLNYIIIYSIMF | 51600
56 | MKSLPFGIHTAVCDLISLLLLLLLFFFFFFLLASIWVLDNFFPFFPFSRHLYS | 37500
57 | KQYCVRPNSGRIEPGKSVEVTVLLQAMKAEPPMDAKCRDKFLVQSVAVTADKE | 33600
58 | PAEAPAAEPAAATEAPAETKDEKKEEKKEEKKEKKDEKKTEKSAKVGRRLSAR | 45100
59 | LLLLIFAVFLRACDILSSQWLIWWTDGIVLGASHDLNFWKGWYMFIVWISLFF | 54800
60 | MIASSPGGILCGILLFLLFFLLPCDLPLPFVSCFFSLFSPFLMFLFFLPYFFS | 40700
61 | LEGGRVIQRGRHNVATDVVGCFYDAFCTLLPQMIIVRVTRGKAWDSRVIYPTE | 66400
